Earlier results as cited in US20080113011A1, “Compositions and methods for enhanced mucosal delivery of interferon beta” (Nastech Pharmaceutical Company Inc., priority 2002, published 2008).
Read-outs that look alike come from different tables or passages of the source.

Conditions: anesthetized rats

Substance: human growth hormone: human growth hormone given nasally to anesthetized rats with or without N-acetyl-L-cysteine
- nasal bioavailability (with N-acetyl-L-cysteine (ACS)): 12.2%
- nasal bioavailability (without N-acetyl-L-cysteine): 7.5%
